Test: yeast display, Sf9 membrane polyspecificity reagent, FACS + sequencing; frameworks hold sequencing errors
In short: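 Sorting gates, low and high (top ~1%), were placed on anti-HA fluorescence to track expression and on streptavidin fluorescence to track reagent binding. A clone's polyreactivity label is taken from the gate it came out of. The reagent was 10% biotinylated, detergent-solubilized Sf9 membrane, applied for 1 hour at 4 °C to galactose-induced yeast display cells.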

Row | Sequence | polyreactivity (PSR sort gate)
1 | QVQLVESGGGLVQAGGSLRLSCAASGGIFKWYDMGWYRQAPGKEREFVAAITWSGGSTYYADSVKGRFTISRDNAKNTVYLQMNSLKPEVTAVYYCNVDWYPRGPHTVVFYDVSPFDYWGQGTQVTVSS | high polyreactivity
2 | QVQLVESGGGLVQAGGSLRLSCAASGGIFLPNAMGWYRQAPGKERELVAAISTGGSTNYADSVKGRFTISRDTAKNTVYLQMNSLKPEDTAVYYCAATPYNYVGFSRGGDYWGQGTQVTVSS | low polyreactivity
3 | QVQLVESGGGLVQAGGSLRLSCAASGGIFLYYAMGWYSQAPGKVRELVAAISSRGGSTYYAHSVKGRYTISRDNAKNTVYLQMNSLKPEDTAVYYCAAESGYYRRTGIFYSWGQGTHVTVSS | high polyreactivity
4 | QVQLVESGGGLVQAGGSLRLSCAASGGIFPFYAMGWYRQAPGKERELVAAISSGGSTYYADSVKGRFTISRDNAKNTVYLQMNSLKPEDTAVYYCAKRISTRRYDYWGQGTQVTVSS | low polyreactivity
5 | QVQLVESGGGLVQAGGSLRLSCAASGGIFPGNTMGWYRLAPRKESELVAAISNGVSTNYADSVKGRFTISRDNAKNTVYLQMNSLKPEDTAVYYCAADWSWWDGEDYHFEYDYWGQGTQVTVSS | low polyreactivity
6 | QVQLVESGGGLVQAGGSLRLSCAASGGIFQPNAMGWYRQAPGKERELVASISSDGSTNYADSVKGRFTISRDNAKNTVYLQMTSLKPEDTAVYYCAAAVKRGYAQSFISDGYGYWGQGTQVTVSS | low polyreactivity
7 | QVQLVESGGGLVQAGGSLRLSCAASGGIFRGYAMGWYRQAPGKERELVAAITKRGGRTYYADSVKGRFTISRDNAKNTVYLQMNSLKPEDTAVYYCAADYYAAYHLPDQDYDYWGQGTQVTVSS | high polyreactivity
8 | QVQLVESGGGLVQAGGSLRLSCAASGGIFRGYTMGWYRQAPGKERELVAAISKGGGSTYYADSVKGRFTISRDIAKNTVYLQMNSLKPEDTAVYYCAARHVYPLLDYWGQGTQVTVSS | high polyreactivity
9 | QVQLVESGGGLVQAGGSLRLSCAASGGIFRLYGMGWYRQAPGKERELVAAIRQSGGRTYYADSVKGRFTISRDNAKNTVYLQMNSLKPEDTAVYYCAADLLYRSSGSARLDYDYWGQGTQVTVSS | low polyreactivity
10 | QVQLVESGGGLVQAGGSLRLSCAASGGIFRQYAMGWYRQAPGKERELVAAISYNTGSTYYADSVKWRFTISRDNAKNTVYLQMNSLKPEDTAVYYCAKDIVIPATYVEYDYWGKGTQVTVSS | low polyreactivity
11 | QVQLVESGGGLVQAGGSLRLSCAASGGIFRYAMGWYRQAPGKEREFVAAITTRGGSTYYADSVKGRFTISRDNAKNTVYLQMNSLKPEDTAVYYCAARPYSGRNKYDYWGQGTQVTVSS | high polyreactivity
12 | QVQLVESGGGLVQAGGSLRLSCAASGGIFRYNAMGWYRQAPGKERELVAAISYRGGSTYYADSVKGRFTISRDNAKNTVYLQMNSLKPEDTAVYYCAAVYYQDKRGDYWGQGTQVTVSS | high polyreactivity
13 | QVQLVESGGGLVQAGGSLRLSCAASGGIFRYYAMGWYRQAPGKERELVARISRRAGSTYYADSVKGRFTISRDNAKNTVYLQMNSLKPEDTAVYYCNKVGGTLGYDYWGQGTQVTVSS | high polyreactivity
14 | QVQLVESGGGLVQAGGSLRLSCAASGGIFSCKAMGWYRQAPGKERELVAAITTRGGSTYYADSVKGRFTISRDNAKNSVYLQMNSLKPEDTAVYYCAAEGYEEFNWGQGTQVTVSS | low polyreactivity
15 | QVQLVESGGGLVQAGGSLRLSCAASGGIFSSYAMGWYRQAPGKERELVADISWNGDSTYYADSVKGRFTISRDNAKNTVYLQMNSLKPEDTAVYYCNAQWYFTPGTPVDYWGQGTQLTVSS | low polyreactivity
16 | QVQLVESGGGLVQAGGSLRLSCAASGGIFSVYAMGLYRQAPGKERELVASITVSGGSTSYADSVKGRFTISRDNAKNTVYLQMNSLKPEDTAVYYCNTDFGQAHTLSWYEDMDYWGQGTQVTVSS | low polyreactivity
17 | QVQLVESGGGLVQAGGSLRLSCAASGGIFSVYGMGWYRQAPGKERELVAVIRRGGSTYYADSVKGRFTISRDNAKNTVYLQMNSLKPEDTAVYYCATDYPGYFVDGNYYWGQGTQVTVSS | low polyreactivity
18 | QVQLVESGGGLVQAGGSLRLSCAASGGIFSYYAMGWSRQSPGKEREFVAAIDWGGGSTYYADSVKGRFTISRDNAKNTLNLQMNSLKPEDTAVYYCAAEIYPIRWDDYDYWGQGTQVTVSS | low polyreactivity
19 | QVQLVESGGGLVQAGGSLRLSCAASGGIFSYYAMGWYIQAPGKERELVAAISGSGGRTYYADSVKGRFTLSRDNAKNTVYLQMNSLKPEDTAVYYCAAYPVNRVDYRYDYWGQGTQVTVSS | high polyreactivity
20 | QVQLVESGGGLVQAGGSLRLSCAASGGIFTAYPMGWSRQAPGKERELVATITRGGSTNYADSVKGRFTISRDNAKNTVYLQMNSLKPEDTAVYYCNARYSWRSKWWTEDDYWGQGTQVTVSS | high polyreactivity
21 | QVQLVESGGGLVQAGGSLRLSCAASGGIFTAYTIGWYRQAPGKERELVATITRGGSTNYADSVKGRFTISRDNAMNTVYLQMNSLKPEDTAVYYCNARVQRRGVQYYYWGHGTQVTVSS | high polyreactivity
22 | QVQLVESGGGLVQAGGSLRLSCAASGGIFTGYAMGRYRQAPGKERELVAAISSGGTTYYADSVKGRFTISRDNAKNTVDLQMNSLKPEDTAVYYCAAGFYLRAVWMDYWGQGSQVTVSS | high polyreactivity

Row | Sequence | polyreactivity (PSR sort gate)
23 | QVQLVESGGGLVQAGGSLRLSCAASGGIFTLYVRGWYRQAPGKERELVAAISRTGGSTYYADSVKGRFTISRDNAKNTVYLQMNSLKPEDTAVYFCAALYRGGTRYGGYDYWGQGTQVTVSS | low polyreactivity
24 | QVQLVESGGGLVQAGGSLRLSCAASGGIFTSYDMGWYRQAPAKEREFVAGISDSGGSTYYADSVKGRFTISRDNAKNTVYLQMNSLKPEDTAVYYFAADAWYVWEYWWQTEDDYWGQGTEVTVSS | high polyreactivity
25 | QVQLVESGGGLVQAGGSLRLSCAASGGIFTYYAMGGYRQAPGKERELVAAITWSGGSTYYADSVKGRFTISRDNAKNTVYLQMNSLKPEETAVYYCNAVVLHVTTDNSTFTTDDYWGHGTQVTVSS | low polyreactivity
26 | QVQLVESGGGLVQAGGSLRLSCAASGGIFVPYAMGWYRQAPGKERELVAGITSGGSTNYADSVKGRFTISRDNAKNTVYLQMNSLKPVDTAVYYCAARRRPGGRYKSRVWYDYWGQGTQVTVSS | high polyreactivity
27 | QVQLVESGGGLVQAGGSLRLSCAASGGIFVRNAMLWYRQAPGKERELVAAISDTGGSTYYADSVKGRFTISRDNAKNTVYLQMNSLKPEDTAVYYCAADLSPEADDYDVGGWRFRYDYWGQGTQVTVSS | low polyreactivity
28 | QVQLVESGGGLVQAGGSLRLSCAASGGIFVSYAMGWYRQAPGNERELVAAITSGGGTSYADSVKGRFTISRDNAKNTVYLQMNSLKPEDTAVYYCNADGYLAERFVIRLDEYRDYDYWGQGTQVTVSS | low polyreactivity
29 | QVQLVESGGGLVQAGGSLRLSCAASGGIFVTYAMGWCRQAPGKERELVAAITSGDSTYYADSVKGRFTISRDNAKNPVYLQMNSLKPEDTAVYYCAVGSTDRVSAQGSYFTYDYWGQGTQVTVSS | low polyreactivity
30 | QVQLVESGGGLVQAGGSLRLSCAASGGIFWFNAMGRYRQAPGKEREFVAAITWRGGSTYYADSVKGRFTISRDNAKNTVYLQMHSLKPEDTAVYYCAATYWWHRSSGWDRVEYWGQGTQVNVSS | high polyreactivity
31 | QVQLVESGGGLVQAGGSLRLSCAASGGIFWTYAMGWYRQAPWKERELVATITSGGSTNYADSVKGRFTISRDNAKNTVYLQMNSLKPEDTAVYYCNADWWWGYGYWGQGTQVTVSS | low polyreactivity
32 | QVQLVESGGGLVQAGGSLRLSCAASGGIFYDYAMGWYRQAPGKERELVAAISQSGGSTYYADSVKGRFTISRDNAKNTVYLQMNSLKPEDTAVYYCAADYLDSTYGYVYGWDDSWGQGTQVTVSS | low polyreactivity
33 | QVQLVESGGGLVQAGGSLRLSCAASGGIFYGNVMGWYRHAPGKERELVADITSVGSTYYADSVKGRFTISRDNAKNTVYLQMNSLKPEDTAVYYCAAETYLVFSTWYGYDYCGQGTQVTVSS | low polyreactivity
34 | QVQLVESGGGLVQAGGSLRLSCAASGGIFYGYALGWYRQAPGKERELVASITSDGSTYADSVKGRFTISRDNAKNTVYLQMNSLKPEDTAVYYCNKEILVIVTYDYWGQGTQVTVSS | low polyreactivity
35 | QVQLVESGGGLVQAGGSLRLSCAASGGIFYGYAMGWYRQAPGKERELVAAISDSGGSTYYADSVKGRFTISRDNAKNTVYLQMNSLKPEDTAVYYCATDAPVGGYVSEGDYWGQGTQVTVSS | low polyreactivity
36 | QVQLVESGGGLVQAGGSLRLSCAASGGIFYGYAMGWYRQAPGKERELVAAITTGGSTNYADSVKGRFTISRDNAKNTVYLQMNSLKPEDTAVYYCAAPVNRAQGPYARRVERYGYWGQGTQVTVSS | low polyreactivity
37 | QVQLVESGGGLVQAGGSLRLSCAASGGIFYPYAMGWYRQAPGKERELVASIDVSDGSTYYADSVKGRFTISRDNAKNSVYLQMNSLKPEDTAVYYCAADRYSKAIDFEGDYWGQGTQVTVSS | low polyreactivity
38 | QVQLVESGGGLVQAGGSLRLSCAASGGIISINAMGWYRQAPGKERELVAAISWGDGITYYADSVKGRFTTSRDNAKNTVYLLMTSLKPEDTAVYYCAKDIGTRLGPAGYDYWGQGTQVTVSS | low polyreactivity
39 | QVQLVESGGGLVQAGGSLRLSCAASGGIISSYVMGWYRQAPGKERELVAAISRSGGSTYYADSVKGRFTISRDNAKNTVYLQMNSLKPEDTAVYFCAAVLQTRYNYWGQGTQVTVSS | high polyreactivity
40 | QVQLVESGGGLVQAGGSLRLSCAASGGILNPNAMGWYRQAPGKERELVAAISNGGGTKYADSVKWRFTISRDNAKNTVYLQMNSLKPEDTAVYYCAARQWWSYDYWGKGTQVTVSS | high polyreactivity
41 | QVQLVESGGGLVQAGGSLRLSCAASGGILPKYAMGWYRQAPGKERELVAAIDGGADSTYYADSVKGRFTISRDIAKNTVYLQLNSLKPEDTAVYFCGADGSLHAGHWRTYGYYYWGQGTQVTVSS | low polyreactivity
42 | QVQLVESGGGLVQAGGSLRLSCAASGGILRQNTMGWYRQAPGKERELVAAISSSGGRTYYADSVKGRFTISRDNAKNTVYLQMNSLKPEDTAVYYCAAEVRLKYRGWTGDYWGQGTQVTVSS | high polyreactivity
43 | QVQLVESGGGLVQAGGSLRLSCAASGGIPLYYVMGWYRQAPGKERELVADISGDDSTNYADSVKGRFTISRDNAKNTVYLQMNSLKPEDTAVYYCAADGWLWSFTGDGWWFDYWGQGTQVTVSS | low polyreactivity
